The text below walks through data of patent publication US20170248602A1.

Experiment [1] has as its target T1, SNAP-25 peptide comprising amino acids 134-197 of SEQ ID NO:5 (human). As to the kind of experiment: SPR (BIAcore 3000), peptide on CM5 chip, 1:1 fit.
For experiment [2], the target named is T1, SNAP-25 peptide comprising amino acids ….

Where two headings read alike, the source gives them in different places.

B1: α-SNAP-25 mouse monoclonal antibody 1D3B8 (antibody, V domains shown)
VH: QVKLQESGAELVKPGASVKISCKASGYIFTDHALHWVRQKPEQGLEWIGYIFPGNGNIEYNEKFKGKATLTADKSSSTAYMQLNSLTSGDSAMYFCKKMDYWGQGTTVTVSS
VL: DVLMTQTPLSLPVSLGDQASISCRSSQSIVHSNGNTYLEWYLQKPGQSPKLLIYKVSNRFSGVPDRFSGSGSGTDFTLKISRVEAEDLGVYYCFQGSHVPPTFGAGTKLELKR
Usually Kd stands for the concentration at which binding is half-saturated. Low readings indicate a tighter complex, high ones a looser complex. As usually defined, the koff is the first-order rate constant of dissociation. High values mean a short-lived complex, low ones a long-lived complex. By kon is commonly meant the second-order rate constant of association. A lower kon goes with slower complex formation. In experiment [1], B1 displayed a Kd of 0.05 nM, a koff of 5.78e-05 s⁻¹ and a kon of 1.06e+06 M⁻¹ s⁻¹.

B2: α-SNAP-25 mouse monoclonal antibody 2C9B10 (antibody, V domains shown)
VH: QVKLQESGAELVKPGASVKISCKASGYTFTDHSIHWVKQKPGQGLEWIGYLFPGNGNFEYNEKFKGKATLTADKSSSTAYMHLNSLTSEDSAVYFCKKMDYWGQGTTVTVSS
VL: DIQMTQSPASLSASVGETVTITCRTTENIYSYFVWSQQRQGKSPQLRVYNAKSLAEGVPSSFNVSVSGTQFSLKINSLQPEDFGTYHCQHHYGTPYTFGGGTRLEIRR
As for B2, in experiment [1], the Kd stood at 27.1 nM, the koff worked out at 0.000311 s⁻¹ and the on-rate constant (kon) stood at 11500 M⁻¹ s⁻¹.

B3: α-SNAP-25 mouse monoclonal antibody 2E2A6 (antibody, V domains shown)
VH: QVQLQQSDAELVKPGASVKISCRASGYTFTDHSIHWVKQQPGQGLEWIGYIFPGNGNIEYNDKFKGKATLTADKSSGTAYMQLNSLTSEDSAVYFCKRMGYWGQGTSVTVSS
VL: DVLMTQTPLTLSVTIGQPASISCKSSQSLLYTNGKTYLTWLFQRPGQSPKRLIYLVSELDSGVPDRFSGSGSGTDFTLEITRVEAEDLGVYYCLQSAHFPFTFGSGTKLEIKR
For the molecule B3, in experiment [1], the Kd was 0.09 nM, the koff was 0.000153 s⁻¹ and the on-rate (kon) is 1.7e+06 M⁻¹ s⁻¹. In experiment [2], the dissociation constant (Kd) stood at 0.405 nM, the koff amounted to 6.74e-05 s⁻¹ and the kon is 166000 M⁻¹ s⁻¹.

B4: α-SNAP-25 mouse monoclonal antibody 3C1A5 (antibody, V domains shown)
VH: QVKLQESGAELVKPGASVKISCKASGYTFTDHSIHWVKQKPGQGLEWIGYLFPGNGNFEYNEKFKGKATLTADKSSSTVYMYLNSLTSEDSAVYFCKRMGYWGQGTTVTVSS
VL: DVVMTQTPLTLSVTIGQPASISCKSSQSLLNTNGKTYLTWLIQRPGQSPQRLIYLVSKLDSGVPDRFSGSGSGTDFTLKISRVEAEDLGVYYCLQSSHFPFTFGSGTKLEIKR
B4: in experiment [1], the Kd turned out to be 1.33 nM, the dissociation rate constant (koff) turned out to be 0.000288 s⁻¹ and the on-rate (kon) is 217000 M⁻¹ s⁻¹.
